Results from the supplement of paper PMC10201428.
± gives the standard deviation of the averaged measurements.

How the values were obtained:
[1] = tested on: VchCAST RNA-guided transposition machinery (E. coli BL21(DE3) host, lacZ target); assay: relative integration efficiency (T-RL orientation) vs wild-type transposon end (log2 (normalized fold change)); transposon end mutated: right end (5 bp flank + 75 bp right end); higher = more efficient transposition
Outline: (§1)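 A T7-driven effector plasmid encoding a CRISPR array, tniQ-cas8-cas7-cas6 and tnsA-tnsB-tnsC was co-transformed into E. coli BL21(DE3) together with a pUC57 mini-transposon donor holding barcoded pools of 1549 left-end or 1849 right-end variants. Transformants were plated with 0.1 mM IPTG at 37°C for 18 h. Illumina sequencing of PCR-amplified input plasmids and genomic integration junctions gave barcode abundances, and relative integration efficiency is their output/input fold change, normalised to reference barcodes and log-transformed.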

[2] = tested on: VchCAST RNA-guided transposition machinery (E. coli BL21(DE3) host, lacZ target); assay: relative integration efficiency (T-LR orientation) vs wild-type transposon end (log2 (normalized fold change)); transposon end mutated: right end (5 bp flank + 75 bp right end); higher = more efficient transposition
Outline: as §1

Sequence | relative integration efficiency (log2) [1] | relative integration efficiency (log2) [2]
ACATTTGTTGATACAACCATCAAATGGTAATTCCACCCCTACATTGATAATTATCACACCCAATTTAACTATAACGCTCTGATCATAGTCAGACCAACATTGCTACGACCCGTATTCGCACCGACAC | -5.71 ± 0.097 | -3.06 ± 0.11
ACATTTGTTGATACAACCATCCAATGATAATTACACCCATAAATTGATAATTATCACACCCATAAATTGATATTGCCTCTGATCATAGTCAGACCAACATTGCTACGACCCGTATTCGCACCGACAC | -1.36 ± 0.083 | -2.03 ± 0.58
ACATTTGTTGATACAACCATCCCCTGATAATTACACCCATAAATTGATAATTATCACACCCATAAATTGATATTGCCTCTGATCATAGTCAGACCAACATTGCTACGACCCGTATTCGCACCGACAC | -2.13 ± 0.056 | -1.78 ± 0.023
ACATTTGTTGATACAACCATCCCCTGATAATTACACCCATCCCGTGATAATTATCACACCCATCCCGTGATATTGCCTCTGATCATAGTCAGACCAACATTGCTACGACCCGTATTCGCACCGACAC | -5.99 ± 0.12 | -3.86 ± 0.83
ACATTTGTTGATACAACCATTAAATAATAATTCCACCCATAAATTGATAATTATCACACCCAATTTAACTATAACGCTCTGATCATAGTCAGACCAACATTGCTACGACCCGTATTCGCACCGACAC | -1.71 ± 0.2 | 1.55 ± 0.071
ACATTTGTTGATACAACCATTAAATGATAATTACACCCAAAAATTGATAATTATCACACCCAATTTAACTATAACGCTCTGATCATAGTCAGACCAACATTGCTACGACCCGTATTCGCACCGACAC | -0.982 ± 0.24 | 2.03 ± 0.09
ACATTTGTTGATACAACCATTAAATGATAATTACACCCATAAATTGATAATAATGACACCGAATTTAACTATAACGCTCTGATCATAGTCAGACCAACATTGCTACGACCCGTATTCGCACCGACAC | -0.985 ± 0.22 | 1.98 ± 0.0099
ACATTTGTTGATACAACCATTAAATGATAATTACACCCATAAATTGATAATGATGACACCGAATTTAACTATAACGCTCTGATCATAGTCAGACCAACATTGCTACGACCCGTATTCGCACCGACAC | -1.3 ± 0.18 | 1.9 ± 0.16
ACATTTGTTGATACAACCATTAAATGATAATTACACCCATAAATTGATAATTGTGACACCGAATTTAACTATAACGCTCTGATCATAGTCAGACCAACATTGCTACGACCCGTATTCGCACCGACAC | -1.2 ± 0.14 | 1.99 ± 0.027
ACATTTGTTGATACAACCATTAAATGATAATTACACCCATAATTTGATAATTATCACACCCAATTTAACTATAACGCTCTGATCATAGTCAGACCAACATTGCTACGACCCGTATTCGCACCGACAC | -0.76 ± 0.025 | 2.23 ± 0.16
ACATTTGTTGATACAACCATTAAATGATAATTACACCCATATATTGATAATTATCACACCCAATTTAACTATAACGCTCTGATCATAGTCAGACCAACATTGCTACGACCCGTATTCGCACCGACAC | -0.809 ± 0.018 | 2.04 ± 0.065
ACATTTGTTGATACAACCATTAAATGATAATTACACCCATTAATTGATAATTATCACACCCATTAATTGATATTGCCTCTGATCATAGTCAGACCAACATTGCTACGACCCGTATTCGCACCGACAC | -0.515 ± 0.021 | -0.0993 ± 0.43
ACATTTGTTGATACAACCATTAAATGATAATTCCACCAATAAATTGATAATTATCACACCCAATTTAACTATAACGCTCTGATCATAGTCAGACCAACATTGCTACGACCCGTATTCGCACCGACAC | -1.51 ± 0.17 | 1.37 ± 0.042
ACATTTGTTGATACAACCATTAAATGATAATTCCACCCAAAAATTGATAATTATCACACCCAATTTAACTATAACGCTCTGATCATAGTCAGACCAACATTGCTACGACCCGTATTCGCACCGACAC | -0.813 ± 0.13 | 2.42 ± 0.24
ACATTTGTTGATACAACCATTAAATGATAATTCCACCCAAATATTGATAATTATCACACCCAATTTAACTATAACGCTCTGATCATAGTCAGACCAACATTGCTACGACCCGTATTCGCACCGACAC | -1.51 ± 0.05 | 1.47 ± 0.08
ACATTTGTTGATACAACCATTAAATGATAATTCCACCCAGAAATTGATAATTATCACACCCAATTTAACTATAACGCTCTGATCATAGTCAGACCAACATTGCTACGACCCGTATTCGCACCGACAC | -3.25 ± 0.24 | -0.278 ± 0.36
ACATTTGTTGATACAACCATTAAATGATAATTCCACCCATAAATTGATAATTATCACACCCAATTTAACTATAACGCTCTGATCATAGTCAGACCAACATTGCTACGACCCGTATTCGCACCGACAC | -1.06 ± 0.17 | 2.34 ± 0.17
ACATTTGTTGATACAACCATTAAATGATAATTCCACCCATAACTTGATAATTATCACACCCAATTTAACTATAACGCTCTGATCATAGTCAGACCAACATTGCTACGACCCGTATTCGCACCGACAC | -1.14 ± 0.15 | 1.93 ± 0.17

Sequence | relative integration efficiency (log2) [1] | relative integration efficiency (log2) [2]
ACATTTGTTGATACAACCATTAAATGATAATTCCACCCATAATTTGATAATTATCACACCCAATTTAACTATAACGCTCTGATCATAGTCAGACCAACATTGCTACGACCCGTATTCGCACCGACAC | -0.743 ± 0.14 | 2.52 ± 0.061
ACATTTGTTGATACAACCATTAAATGATAATTCCACCCATACATTGATAATTATCACACCCAATTTAACTATAACGCTCTGATCATAGTCAGACCAACATTGCTACGACCCGTATTCGCACCGACAC | -2.63 ± 0.34 | 0.395 ± 0.29
ACATTTGTTGATACAACCATTAAATGATAATTCCACCCATATATTGATAATTATCACACCCAATTTAACTATAACGCTCTGATCATAGTCAGACCAACATTGCTACGACCCGTATTCGCACCGACAC | -1.24 ± 0.15 | 2.16 ± 0.074
ACATTTGTTGATACAACCATTAAATGATAATTCCACCCATCAATTGATAATTATCACACCCAATTTAACTATAACGCTCTGATCATAGTCAGACCAACATTGCTACGACCCGTATTCGCACCGACAC | -1.79 ± 0.23 | 1.01 ± 0.31
ACATTTGTTGATACAACCATTAAATGATAATTCCACCCCTAAATTGATAATTATCACACCCAATTTAACTATAACGCTCTGATCATAGTCAGACCAACATTGCTACGACCCGTATTCGCACCGACAC | -2.75 ± 0.27 | 0.256 ± 0.39
ACATTTGTTGATACAACCATTAAATGATAATTCCACCCTTAAATTGATAATTATCACACCCAATTTAACTATAACGCTCTGATCATAGTCAGACCAACATTGCTACGACCCGTATTCGCACCGACAC | -2.08 ± 0.36 | 0.973 ± 0.22
ACATTTGTTGATACAACCATTAAATGCTAATTCCACCCATAAATTGATAATTATCACACCCAATTTAACTATAACGCTCTGATCATAGTCAGACCAACATTGCTACGACCCGTATTCGCACCGACAC | -0.972 ± 0.32 | 2.09 ± 0.22
ACATTTGTTGATACAACCATTAAATGGTAATTACACCCATAAATTGATAATTATCACACCCAATTTAACTATAACGCTCTGATCATAGTCAGACCAACATTGCTACGACCCGTATTCGCACCGACAC | -1.34 ± 0.19 | 1.674 ± 0.011
ACATTTGTTGATACAACCATTAAATGGTAATTCCACCCAAAAATTGATAATTATCACACCCAATTTAACTATAACGCTCTGATCATAGTCAGACCAACATTGCTACGACCCGTATTCGCACCGACAC | -2.14 ± 0.21 | 0.883 ± 0.18
ACATTTGTTGATACAACCATTAAATGGTAATTCCACCCAAATATTGATAATTATCACACCCAATTTAACTATAACGCTCTGATCATAGTCAGACCAACATTGCTACGACCCGTATTCGCACCGACAC | -2.19 ± 0.42 | 0.805 ± 0.3
ACATTTGTTGATACAACCATTAAATGGTAATTCCACCCATAAATTGATAATTATCACACCCAATTTAACTATAACGCTCTGATCATAGTCAGACCAACATTGCTACGACCCGTATTCGCACCGACAC | -1.26 ± 0.19 | 2.07 ± 0.25
ACATTTGTTGATACAACCATTAAATGGTAATTCCACCCATATATTGATAATTATCACACCCAATTTAACTATAACGCTCTGATCATAGTCAGACCAACATTGCTACGACCCGTATTCGCACCGACAC | -1.52 ± 0.24 | 1.37 ± 0.13
ACATTTGTTGATACAACCATTAAATGTTAATTCCACCCATAAATTGATAATTATCACACCCAATTTAACTATAACGCTCTGATCATAGTCAGACCAACATTGCTACGACCCGTATTCGCACCGACAC | -1.56 ± 0.23 | 1.73 ± 0.32
ACATTTGTTGATACAACCATTTAATGATAATAACACCCATAAAATGATAATTATCACACCCAATTTAACTATAACGCTCTGATCATAGTCAGACCAACATTGCTACGACCCGTATTCGCACCGACAC | -1.14 ± 0.26 | 2.01 ± 0.13
ACATTTGTTGATACAACCATTTAATGATAATTACACCCATAAATTGATAATTATCACACCCATAAATTGATATTGCCTCTGATCATAGTCAGACCAACATTGCTACGACCCGTATTCGCACCGACAC | -0.195 ± 0.052 | -0.232 ± 0.26
ACATTTGTTGATACAACCATTTTTTGATAATTACACCCATAAATTGATAATTATCACACCCATAAATTGATATTGCCTCTGATCATAGTCAGACCAACATTGCTACGACCCGTATTCGCACCGACAC | -0.627 ± 0.016 | -0.748 ± 0.44
ACATTTGTTGATACAACCATTTTTTGATAATTACACCCATTTTATGATAATTATCACACCCATTTTATGATATTGCCTCTGATCATAGTCAGACCAACATTGCTACGACCCGTATTCGCACCGACAC | -1.61 ± 0.23 | -1.01 ± 0.052
